Measurements published in US20120028880A1, “VEGFR-1/NRP-1 TARGETING PEPTIDES” (priority 2007, published 2012).
Square brackets hold non-standard residues; d marks the D form. Ends that are not written are not given here.

Experiments:
NRP-1 = experiment: competition of CPQPRPLC phage binding to immobilized NRP-1 by soluble peptide
VEGFR-1 = experiment: competition of CPQPRPLC phage binding to immobilized VEGFR-1 by soluble peptide
VEGFR-1, sequence (P17948 27-758): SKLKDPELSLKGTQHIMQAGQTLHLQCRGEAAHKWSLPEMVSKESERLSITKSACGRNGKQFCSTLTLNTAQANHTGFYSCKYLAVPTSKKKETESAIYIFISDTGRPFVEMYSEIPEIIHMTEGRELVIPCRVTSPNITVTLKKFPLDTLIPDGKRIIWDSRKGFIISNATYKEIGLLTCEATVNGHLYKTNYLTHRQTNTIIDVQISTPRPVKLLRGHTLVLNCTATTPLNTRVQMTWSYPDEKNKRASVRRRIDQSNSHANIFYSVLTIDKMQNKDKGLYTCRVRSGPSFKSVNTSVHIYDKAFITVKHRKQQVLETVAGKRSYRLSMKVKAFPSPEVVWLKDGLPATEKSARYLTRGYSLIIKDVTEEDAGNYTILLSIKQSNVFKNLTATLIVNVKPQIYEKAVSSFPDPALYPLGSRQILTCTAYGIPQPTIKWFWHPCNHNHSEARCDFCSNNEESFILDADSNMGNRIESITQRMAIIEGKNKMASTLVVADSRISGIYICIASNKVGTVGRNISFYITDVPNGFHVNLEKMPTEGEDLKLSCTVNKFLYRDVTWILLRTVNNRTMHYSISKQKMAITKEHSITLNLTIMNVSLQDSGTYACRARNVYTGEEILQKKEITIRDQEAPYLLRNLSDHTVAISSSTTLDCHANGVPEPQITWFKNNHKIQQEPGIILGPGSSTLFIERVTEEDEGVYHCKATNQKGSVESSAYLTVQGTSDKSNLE

NRP-1, sequence (O14786 22-856): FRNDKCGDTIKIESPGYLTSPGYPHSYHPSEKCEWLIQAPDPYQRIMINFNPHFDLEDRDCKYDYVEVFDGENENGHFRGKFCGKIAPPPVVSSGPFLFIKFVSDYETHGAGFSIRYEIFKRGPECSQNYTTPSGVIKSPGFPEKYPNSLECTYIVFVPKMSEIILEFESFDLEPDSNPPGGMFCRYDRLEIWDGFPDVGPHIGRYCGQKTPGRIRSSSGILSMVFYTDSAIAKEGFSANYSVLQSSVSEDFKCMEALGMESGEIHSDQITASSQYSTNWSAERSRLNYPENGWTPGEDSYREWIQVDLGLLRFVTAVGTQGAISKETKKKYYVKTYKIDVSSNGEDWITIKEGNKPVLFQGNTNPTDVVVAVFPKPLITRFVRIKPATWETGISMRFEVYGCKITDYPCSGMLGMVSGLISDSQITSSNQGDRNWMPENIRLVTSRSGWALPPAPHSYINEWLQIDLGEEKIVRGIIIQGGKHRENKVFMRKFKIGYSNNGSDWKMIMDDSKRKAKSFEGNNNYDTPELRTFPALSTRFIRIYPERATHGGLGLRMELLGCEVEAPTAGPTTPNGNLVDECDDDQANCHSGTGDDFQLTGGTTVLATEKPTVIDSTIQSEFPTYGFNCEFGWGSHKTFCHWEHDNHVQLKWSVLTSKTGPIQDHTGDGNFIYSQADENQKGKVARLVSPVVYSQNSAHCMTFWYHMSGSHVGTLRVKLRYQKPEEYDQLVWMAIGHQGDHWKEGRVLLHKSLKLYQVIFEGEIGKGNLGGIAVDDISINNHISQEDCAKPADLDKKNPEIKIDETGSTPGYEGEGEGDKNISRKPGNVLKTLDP

IC50 (NRP-1): 1 to 10 pM
IC50 (VEGFR-1): 1 to 10 pM
Substance: [dL]-[dP]-[dR]
